# According to patent US20220119477A1 (published 2022):
# T1: WT1 peptide on HLA-A*02:01 (human)
# T1 peptide: VLDFAPPGA
# Biological target: T1, WT1 peptide on HLA-A*02:01
# Experiment: multimer staining
row,binding result,Binder
1,recognises,"TCR of Patient 1, alpha 1 and beta (growing colony) (TCR, V domains shown) Valpha: AQSVAQPEDQVNVAEGNPLTVKCTYSVSGNPYLFWYVQYPNRGLQFLLKYITGDNLVKGSYGFEAEFNKSQTSFHLKKPSALVSDSALYFCAVRDGGATNKLIFGTGTLLAVQP Vbeta: EAQVTQNPRYLITVTGKKLTVTCSQNMNHEYMSWYRQDPGLGLRQIYYSMNVEVTDKGDVPEGYKVSRKEKRNFPLILESPSPNQTSLYFCASSTLGGELFFGEGSRLTVL"
2,recognises,"TCR of Patient 2, alpha 1 and beta 1 (TCR, V domains shown) Valpha: AQSVTQLDSQVPVFEEAPVELRCNYSSSVSVYLFWYVQYPNQGLQLLLKYLSGSTLVESINGFEAEFNKSQTSFHLRKPSVHISDTAEYFCAVTLLSIEPSAGGYQKVTFGIGTKLQVIP Vbeta: DTGVSQNPRHKITKRGQNVTFRCDPISEHNRLYWYRQTLGQGPEFLTYFQNEAQLEKSRLLSDRFSAERPKGSFSTLEIQRTEQGDSAMYLCASSLEGRAMPRDSHQETQYFGPGTRLLVL"
3,recognises,"TCR of Patient 2, alpha 1 and beta 2 (TCR, V domains shown) Valpha: AQSVTQLDSQVPVFEEAPVELRCNYSSSVSVYLFWYVQYPNQGLQLLLKYLSGSTLVESINGFEAEFNKSQTSFHLRKPSVHISDTAEYFCAVTLLSIEPSAGGYQKVTFGIGTKLQVIP Vbeta: DAMVIQNPRYQVTQFGKPVTLSCSQTLNHNVMYWYQQKSSQAPKLLFHYYDKDFNNEADTPDNFQSRRPNTSFCFLDIRSPGLGDAAMYLCATSWGLNEQYFGPGTRLTVT"
4,recognises,"TCR of Patient 2, alpha 2 and beta 1 (TCR, V domains shown) Valpha: GENVEQHPSTLSVQEGDSAVIKCTYSDSASNYFPWYKQELGKRPQLIIDIRSNVGEKKDQRIAVTLNKTAKHFSLHITETQPEDSAVYFCAATSRDDMRFGAGTRLTVKP Vbeta: DTGVSQNPRHKITKRGQNVTFRCDPISEHNRLYWYRQTLGQGPEFLTYFQNEAQLEKSRLLSDRFSAERPKGSFSTLEIQRTEQGDSAMYLCASSLEGRAMPRDSHQETQYFGPGTRLLVL"
5,recognises,"TCR of Patient 3, alpha 1 and beta (TCR, V domains shown) Valpha: AQKVTQAQTEISVVEKEDVTLDCVYETRDTTYYLFWYKQPPSGELVFLIRRNSFDEQNEISGRYSWNFQKSTSSFNFTITASQVVDSAVYFCALPDKVIFGPGTSLSVIP Vbeta: DSGVTQTPKHLITATGQRVTLRCSPRSGDLSVYWYQQSLDQGLQFLIQYYNGEERAKGNILERFSAQQFPDLHSELNLSSLELGDSALYFCASSVSAGSTGELFFGEGSRLTVL"
6,recognises,"TCR of Patient 3, alpha 2 and beta (TCR, V domains shown) Valpha: GQQLNQSPQSMFIQEGEDVSMNCTSSSIFNTWLWYKQEPGEGPVLLIALYKAGELTSNGRLTAQFGITRKDSFLNISASIPSDVGIYFCAGLYATNKLIFGTGTLLAVQP Vbeta: DSGVTQTPKHLITATGQRVTLRCSPRSGDLSVYWYQQSLDQGLQFLIQYYNGEERAKGNILERFSAQQFPDLHSELNLSSLELGDSALYFCASSVSAGSTGELFFGEGSRLTVL"
7,recognises,"TCR of Patient 2, alpha 2 and beta 2 (TCR, V domains shown) Valpha: GENVEQHPSTLSVQEGDSAVIKCTYSDSASNYFPWYKQELGKRPQLIIDIRSNVGEKKDQRIAVTLNKTAKHFSLHITETQPEDSAVYFCAATSRDDMRFGAGTRLTVKP Vbeta: DAMVIQNPRYQVTQFGKPVTLSCSQTLNHNVMYWYQQKSSQAPKLLFHYYDKDFNNEADTPDNFQSRRPNTSFCFLDIRSPGLGDAAMYLCATSWGLNEQYFGPGTRLTVT"
